Results reported in patent publication US10709769B2, “Use of endostatin peptides for the treatment of fibrosis” (University of Pittsburgh—Of the Commonwealth System of …, priority 2009, dated 2020).

How the values were obtained:
[1] = tested on: human primary lung fibroblasts; experiment: FN and Col1α1 western blot in TGF-β-treated primary lung fibroblasts; format: cell-based; details: normal human lung fibroblasts; TGF-β 10 ng/ml 24 h, then 5 μg/ml rE or peptide 48 h; vs TGF-β alone
Protocol: (§1) Human primary lung and skin fibroblasts were cultured. The explanted lungs of normal organ donors, patients with SSc or IPF, and clinically involved skin of SSc patients, a morphea patient and healthy donors were used for primary fibroblast culture. Approximately 2-cm pieces of peripheral lung and skin were minced and fibroblasts were cultured in Dulbecco's modified Eagle's medium (DMEM; Mediatech, Herndon, Va.) supplemented with 10% FBS, penicillin, streptomycin, and anti-mycotic agent, as previously described (Feghali et al., Arthritis Rheum 1999; 42:1451-7). All the cells were used between passages 3-6.
Cellular lysates were obtained from cultured fibroblasts as previously described (Pilewski et al., Am J Pathol 2005; 166:399-407). Briefly, 2.0×10^5 primary fibroblasts were cultured in 35-mm wells in 0.5% FBS-containing medium supplemented with 10 ng/ml of human recombinant TGF-β or PBS as vehicle control for 24 h, following which 5 μg/ml of human rE, endostatin peptides (E1-E4), or DMSO (vehicle) was added for 48 h. In some experiments, endostatin peptides were used without TGF-β stimulation. Cellular lysates were analyzed by western blot. Signals were detected following incubation with horseradish peroxidase-conjugated secondary antibody and chemiluminescence (Perkin Elmer Life Sciences, Inc., Boston, Mass.). The intensity of individual bands with expected molecular sizes was semi-quantitatively analyzed using the image/J® software available at on the internet (/rsb.info.nih.gov/ij/index.html), and normalized to individual GAPDH intensity.
To evaluate whether endostatin modulates production of ECM components in fibroblasts, FN and Col1α1 expression was examined in normal human lung fibroblasts by western blot analysis. Cells were treated with 5 µg/ml rE for 48 h with or without pre-stimulation with human TGF-β for 24 h. […] To define the functional domain of endostatin that mediates its inhibitory effect, four different peptides were synthesized corresponding to different regions of endostatin (Table 1).

mouse skin = experiment: TGF-β-induced dermal fibrosis in vivo in mouse skin; details: mice, intradermal, 10 μg/ml with TGF-β 10 ng/ml, one week post-injection
Protocol: FIG. 9. E4 reverses TGF β-induced dermal fibrosis even if administered 3 days following TGF-β.
CB57BL6/J male mice were purchased from The Jackson Laboratory (Bar Harbor, Me.). Human rE (10 μg/ml) or Endostatin peptides (10 μg/ml) in combination with TGF-β (10 ng/ml), or TGF-β alone were injected intradermally on the back of mice in a total volume of 100 μl 1×PBS. Mice were injected in two different skin sites and sacrificed one week post-injection. Skin surrounding the injection site was harvested and fixed in 10% formalin prior to embedding in paraffin.
(§2) Six μm sections of paraffin-embedded human and mouse skin tissues were stained with hematoxylin and eosin (H&E). In some experiments, sections were stained with Masson trichrome which identifies collagens. Images were taken on a Nikon Eclipse 800 microscope. The thickness of the dermis was measured in 6 random fields of each section using the image/J® software. Data are shown in arbitrary units.
E4, a peptide representing the carboxy terminus of human endostatin, can attenuate fibrosis triggered by multiple fibrogenic factors. The anti-fibrotic effects of E4 can be detected whether administered concomitantly with or following the fibrogenic trigger. The efficacy of E4 was confirmed in […] pre-clinical models of fibrosis: a) bleomycin-induced dermal fibrosis in vivo in mouse skin, b) TGF-β induced dermal fibrosis in mouse skin, and c) bleomycin-induced pulmonary fibrosis. E4 peptide or a control peptide (E1; representing the amino terminal region of endostatin) were administered at the same time as TGF-β or bleomycin or 3-4 days following TGF-β or bleomycin. Mice were sacrificed one and two weeks after TGF-β-initiation of dermal fibrosis, and two and three weeks after bleomycin-induced pulmonary fibrosis. Two different modes of administration of the E4 peptide were also tested. It was confirmed that intraperitoneal and intratracheal administration was effective. The amount of E4 that was administered ws 10 μg/ml in a total volume of 100 μl for skin and IP injections and 50 μl for IT administration.

human skin explants = experiment: Ex vivo human skin fibrosis organ culture, dermal thickness; format: cell-based; details: for dermal thickness, baseline effect: injected alone without TGF-β, rE 1, 5, 10 μg/ml, peptides 10 μg/ml
Protocol: Human abdominal skin was obtained from corrective plastic surgery. As previously described (Yasuoka et al., The Open Rheumatol J 2008; 2:17-22), subcutaneous fat tissue was removed uniformly and skin tissue was cut into 1.5 cm×1.5 cm sections. The following were injected intradermally in a total volume of 100 μl 1×PBS: rE alone (1-10 μg/ml), endostatin peptides alone (10 μg/ml), rE or endostatin peptides (1-20 μg/ml) in combination with TGF-β (10 ng/ml), and TGF-β alone (10 ng/ml). In some experiments, human skin was first injected with TGF-β for 48 h followed by recombinant endostain (rE) administration in the same injection site as TGF-β. Explants containing complete epidermal and dermal layers were cultured in an air liquid interface with the epidermal and keratin layers side up and exposed to air. The culture medium was replaced every other day. After 1 or 2 weeks, skin tissue corresponding to an area with 8-mm diameter centered around the injection site was harvested using disposable 8-mm Acu Punch® (Acuderm inc., Lauderdale, Fla.). Skin tissue was fixed in 10% formalin prior to embedding in paraffin.
as §2

[2] = tested on: Human umbilical vein endothelial cells (HUVECs); experiment: Tubular formation assay in Matrigel; format: cell-based; details: 50 nM, 24 hours
Protocol: The ability of endostatin peptide to inhibit angiogenesis was examined in tubular formation assay using Matrigel® culture. Human umbilical vein endothelial cells (HUVECs) were maintained in endothelial cell basal medium-2 (EBM-2; Clonetics, San Diego, Calif.) supplemented with EBM-2 MV SingleQuots®. HUVECs (5×10^4) were cultured in duplicate on 24-well Matrigel® plates (BD Biosciences, San Diego, Calif.) alone, or in the presence of rE or E4 peptide (50 nM) in EBM-2 at 37° C. DMSO was used as vehicle control. After 24 hours, images were captured using a […] microscope. The degree of cord formation was quantified by measuring the area occupied by tubes in 6 random fields per well. Three independent experiments were performed.

[3] = tested on: human primary skin fibroblasts; experiment: TGF-β-induced ECM production in primary skin (dermal) fibroblasts, western blot; format: cell-based; details: dermal fibroblasts from healthy controls, SSc or morphea patients
Protocol: as §1
Cellular lysates were obtained from cultured fibroblasts as previously described (Pilewski et al., Am J Pathol 2005; 166:399-407). […] Cellular lysates were analyzed by western blot. Signals were detected following incubation with horseradish peroxidase-conjugated secondary antibody and chemiluminescence (Perkin Elmer Life Sciences, Inc., Boston, Mass.). The intensity of individual bands with expected molecular sizes was semi-quantitatively analyzed using the image/J® software available at on the internet (/rsb.info.nih.gov/ij/index.html), and normalized to individual GAPDH intensity. […]

[4] = cited from earlier work

Molecule: H-^1HSHRDFQPVLHLVALNSPLSGGMRGIRGADFQCFQQARAVGLAGT^45-OH (H-HSHRDFQPVLHLVALNSPLSGGMRGIRGADFQCFQQARAVGLAGT-OH; UniProt P39060 1572-1616, looked up, fragment) [E1, human endostatin fragment, amino acids 1-45; amino terminal control peptide]
- FN and Col1α1 levels/production [1]: had no effect
- TGF-β-induced dermal fibrosis (dermal thickness) (mouse skin): did not alter

Molecule: H-^71IVNLKDELLFPSWEALFSGSEGPLKPGARIFSFDGKDVLRHPTWP^115-OH (H-IVNLKDELLFPSWEALFSGSEGPLKPGARIFSFDGKDVLRHPTWP-OH; UniProt P39060 1642-1686, looked up, fragment) [E2, human endostatin fragment, amino acids 71-115]
- TGF-β-induced dermal fibrosis (dermal thickness) (mouse skin): significantly reduced

Molecule: H-^133SYCETWRTEAPSATGQASSLLGGRLLGQSAASCHHAYIVLCIENSFMT^180-OH (H-SYCETWRTEAPSATGQASSLLGGRLLGQSAASCHHAYIVLCIENSFMT-OH; cysteine pairing not given here; UniProt P39060 1704-1751, looked up, fragment) [E3, human endostatin fragment, amino acids 133-180]
- TGF-β-induced dermal fibrosis (dermal thickness) (mouse skin): prevented
- dermal thickness, baseline effect (human skin explants): tendency towards reduction
- development of fibrosis as measured by dermal thickness (human skin explants; peptides 10 μg/ml with TGF-β 10 ng/ml, vs TGF-β alone): significantly abolished

B1: full-length recombinant human endostatin (protein, UniProt P39060 1572-1754, looked up)
Endostatin: HSHRDFQPVLHLVALNSPLSGGMRGIRGADFQCFQQARAVGLAGTFRAFLSSRLQDLYSIVRRADRAAVPIVNLKDELLFPSWEALFSGSEGPLKPGARIFSFDGKDVLRHPTWPQKSVWHGSDPNGRRLTESYCETWRTEAPSATGQASSLLGGRLLGQSAASCHHAYIVLCIENSFMTASK
modifications: Endostatin
notes: full-length recombinant human endostatin purchased from Sigma-Aldrich
- inhibition of tubular structure formation [2]: significant
- FN and Col1α1 levels/production [1]: dramatically reduced
- TGF-β-induced ECM production (FN, Col1α1) [3]: reduced
- TGF-β-induced dermal fibrosis, delayed treatment (human skin explants; injected 2 days after TGF-β administration): significantly ameliorated
- dermal thickness, baseline effect (human skin explants): tendency towards reduction
- dermal thickness (human skin explants; rE 1, 5, 10 μg/ml injected simultaneously with TGF-β 10 ng/ml, one week, dose-dependent): significantly reduced

B2: ENDSTAR: recombinant human endostatin purified from E. coli containing an additional nine-amino acid sequence, his-tagged; approved for non-small-cell lung cancer in China (protein, UniProt P39060 1572-1754, looked up)
Endostatin: B1 Endostatin
modifications: Endostatin additional nine-residue His tag
notes: approved for non-small-cell lung cancer in China
- half-life [4]: short
